IntAct's records for PubMed 16977309

Assays:
csk21_rat Csnk2a1 = csk21_rat Csnk2a1 (UniProt P19139)
csk2b_human CSNK2B = csk2b_human CSNK2B (UniProt P67870)
csk21_human CSNK2A1 = csk21_human CSNK2A1 (UniProt P68400)
gga3_human GGA3 = target: T1, gga3_human GGA3 (UniProt Q9NZ52)
T1 sequence: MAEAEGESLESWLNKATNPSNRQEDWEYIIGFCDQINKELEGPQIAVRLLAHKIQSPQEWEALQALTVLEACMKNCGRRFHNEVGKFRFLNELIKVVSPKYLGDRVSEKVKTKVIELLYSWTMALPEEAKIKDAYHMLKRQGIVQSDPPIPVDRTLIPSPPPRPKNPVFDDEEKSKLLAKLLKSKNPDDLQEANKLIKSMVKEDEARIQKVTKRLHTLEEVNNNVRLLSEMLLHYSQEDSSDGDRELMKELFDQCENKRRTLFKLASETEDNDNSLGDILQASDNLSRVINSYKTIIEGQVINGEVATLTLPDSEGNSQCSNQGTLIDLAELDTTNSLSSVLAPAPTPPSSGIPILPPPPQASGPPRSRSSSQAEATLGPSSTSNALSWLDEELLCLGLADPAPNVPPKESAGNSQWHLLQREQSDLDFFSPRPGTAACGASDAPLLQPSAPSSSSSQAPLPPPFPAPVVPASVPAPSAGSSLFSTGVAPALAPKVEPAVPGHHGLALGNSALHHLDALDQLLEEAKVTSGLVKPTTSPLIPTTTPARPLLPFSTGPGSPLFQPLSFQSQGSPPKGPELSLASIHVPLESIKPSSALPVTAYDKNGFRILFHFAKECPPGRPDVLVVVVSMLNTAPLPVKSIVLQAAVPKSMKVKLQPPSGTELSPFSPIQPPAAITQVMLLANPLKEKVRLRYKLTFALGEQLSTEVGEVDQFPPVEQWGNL

csk21_human CSNK2A1, sequence (P68400 whole entry, looked up): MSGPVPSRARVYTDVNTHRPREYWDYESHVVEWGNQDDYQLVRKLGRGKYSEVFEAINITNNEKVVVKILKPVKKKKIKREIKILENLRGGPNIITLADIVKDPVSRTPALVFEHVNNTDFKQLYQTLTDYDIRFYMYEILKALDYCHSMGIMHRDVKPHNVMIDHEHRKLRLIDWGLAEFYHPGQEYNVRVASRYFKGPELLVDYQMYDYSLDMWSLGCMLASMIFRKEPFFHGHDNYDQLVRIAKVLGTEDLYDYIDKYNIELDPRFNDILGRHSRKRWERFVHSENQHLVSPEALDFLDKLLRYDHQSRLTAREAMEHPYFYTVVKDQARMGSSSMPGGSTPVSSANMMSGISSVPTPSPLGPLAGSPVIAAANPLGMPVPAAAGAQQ
csk2b_human CSNK2B, sequence (P67870 whole entry): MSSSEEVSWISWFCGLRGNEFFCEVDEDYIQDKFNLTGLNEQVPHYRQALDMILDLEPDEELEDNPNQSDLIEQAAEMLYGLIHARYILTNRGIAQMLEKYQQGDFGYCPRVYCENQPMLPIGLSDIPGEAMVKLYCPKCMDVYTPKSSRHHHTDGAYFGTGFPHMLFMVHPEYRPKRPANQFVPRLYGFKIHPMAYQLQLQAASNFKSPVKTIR
csk21_rat Csnk2a1, sequence (P19139 whole entry, looked up): as the sequence (P68400 whole entry, looked up) above, with G335S, S337A, S338G, P340A, P378S, M381I counted along it

| Substance | effect of a mutation on the interaction (csk21_rat Csnk2a1) | effect of a mutation on the interaction (csk2b_human CSNK2B) | effect of a mutation on the interaction (csk21_human CSNK2A1) | effect of a mutation on the interaction (gga3_human GGA3) |
| --- | --- | --- | --- | --- |
| Phosphofurin acidic cluster sorting protein 1 (Homo sapiens) (from UniProt Q6VY07) R196A;R197A;K198A;R199A;Y200A | disrupting interaction strength | disrupting interaction | disrupting interaction |  |
| Phosphofurin acidic cluster sorting protein 1 (Homo sapiens) (from UniProt Q6VY07) Y251A |  |  |  | disrupting interaction |
| Phosphofurin acidic cluster sorting protein 1 (Homo sapiens) (from UniProt Q6VY07) K249W |  |  |  | disrupting interaction |
